The values that follow come from article PMC8986801, “Activation of the essential kinase PDK1 by phosphoinositide-driven trans-autophosphorylation” (Nature Communications, 2022).

The series concerns the molecule itself. The series can be described thus: SEC-MALS; 50 μl of purified protein injected on Superdex 200 10/300; 50 mM Tris pH 7.5, 100 mM NaCl, 2% glycerol, 1 mM TCEP, 2 mM MgCl2, ±1 mM ATP; self-association (monomer or dimer).

B1: PDK1^SKD-PIF S241A (PIFtide fused through a (GS)4 linker to the C-terminus of the short kinase domain, S241A) (other)
chain: QPRKKRPEDFKFGKILGEGSFSTVVLARELATSREYAIKILEKRHIIKENKVPYVTRERDVMSRLDHPFFVKLYFTFQDDEKLYFGLSYAKNGELLKYIRKIGSFDETCTRFYTAEIVSALEYLHGKGIIHRDLKPENILLNEDMHIQITDFGTAKVLSPESKQARANAFVGTAQYVSPELLTEKSACKSSDLWALGCIIYQLVAGLPPFRAGNEYLIFQKIIKLEYDFPEKFFPKARDLVEKLLVLDATKRLGCEEMEGYGPLKAHPFFESVTWENLHQQTPPKLTGSGSGSGSQEMFRDFDYIADWC
notes: 3-phosphoinositide-dependent kinase 1 (PDK1), human, residues 73-359 (short kinase domain); minimal poly Gly-Ser (GS)4 linker; PIFtide, a peptide derived from the hydrophobic motif of PRK2; also called C-terminal PIFtide SKD fusion S241A; dimer; source: baculovirus-infected Sf9 insect cells, purified (glutathione sepharose, 3C cleavage, HiTrap Q, gel filtration); not shown: GST, N-terminal, …
On to B1, for which the “stoichiometry N” value stood at 2.
